Experimental data published in article PMC3718739 (PLoS ONE, 2013).

Target: ARPC4-His6x (human, UniProt P59998 1-168)
Assay: far-Western, overlay or dot blot
Settings: both partners purified

B1: GST-Rv1626 (natural protein)
chain: MTGPTTDADAAVPRRVLIAEDEALIRMDLAEMLREEGYEIVGEAGDGQEAVELAELHKPDLVIMDVKMPRRDGIDAASEIASKRIAPIVVLTAFSQRDLVERARDAGAMAYLVKPFSISDLIPAIELAVSRFREITALEGEVATLSERLETRKLVERAKGLLQTKHGMTEPDAFKWIQRAAMDRRTTMKRVAEVVLETLGTPKDT
notes: also called Rv1626-pGEX4T3nn; not shown: GST, N-terminal, kept
B1: binds.
